In patent publication US20210032352A1 (ANTERA THERAPEUTICS, published 2021):

Assays:
[1] = target: T1, mouse LRP6 ECD, Fc-tagged (mouse, UniProt O88572 20-1370); assay: ELISA of the IgG on hLRP6, mLRP6, mLRP5, Fc and BSA
T1 construct: extracellular domain; Bought; not shown: Fc tag of the purchased fusion
T1 sequence (looked up): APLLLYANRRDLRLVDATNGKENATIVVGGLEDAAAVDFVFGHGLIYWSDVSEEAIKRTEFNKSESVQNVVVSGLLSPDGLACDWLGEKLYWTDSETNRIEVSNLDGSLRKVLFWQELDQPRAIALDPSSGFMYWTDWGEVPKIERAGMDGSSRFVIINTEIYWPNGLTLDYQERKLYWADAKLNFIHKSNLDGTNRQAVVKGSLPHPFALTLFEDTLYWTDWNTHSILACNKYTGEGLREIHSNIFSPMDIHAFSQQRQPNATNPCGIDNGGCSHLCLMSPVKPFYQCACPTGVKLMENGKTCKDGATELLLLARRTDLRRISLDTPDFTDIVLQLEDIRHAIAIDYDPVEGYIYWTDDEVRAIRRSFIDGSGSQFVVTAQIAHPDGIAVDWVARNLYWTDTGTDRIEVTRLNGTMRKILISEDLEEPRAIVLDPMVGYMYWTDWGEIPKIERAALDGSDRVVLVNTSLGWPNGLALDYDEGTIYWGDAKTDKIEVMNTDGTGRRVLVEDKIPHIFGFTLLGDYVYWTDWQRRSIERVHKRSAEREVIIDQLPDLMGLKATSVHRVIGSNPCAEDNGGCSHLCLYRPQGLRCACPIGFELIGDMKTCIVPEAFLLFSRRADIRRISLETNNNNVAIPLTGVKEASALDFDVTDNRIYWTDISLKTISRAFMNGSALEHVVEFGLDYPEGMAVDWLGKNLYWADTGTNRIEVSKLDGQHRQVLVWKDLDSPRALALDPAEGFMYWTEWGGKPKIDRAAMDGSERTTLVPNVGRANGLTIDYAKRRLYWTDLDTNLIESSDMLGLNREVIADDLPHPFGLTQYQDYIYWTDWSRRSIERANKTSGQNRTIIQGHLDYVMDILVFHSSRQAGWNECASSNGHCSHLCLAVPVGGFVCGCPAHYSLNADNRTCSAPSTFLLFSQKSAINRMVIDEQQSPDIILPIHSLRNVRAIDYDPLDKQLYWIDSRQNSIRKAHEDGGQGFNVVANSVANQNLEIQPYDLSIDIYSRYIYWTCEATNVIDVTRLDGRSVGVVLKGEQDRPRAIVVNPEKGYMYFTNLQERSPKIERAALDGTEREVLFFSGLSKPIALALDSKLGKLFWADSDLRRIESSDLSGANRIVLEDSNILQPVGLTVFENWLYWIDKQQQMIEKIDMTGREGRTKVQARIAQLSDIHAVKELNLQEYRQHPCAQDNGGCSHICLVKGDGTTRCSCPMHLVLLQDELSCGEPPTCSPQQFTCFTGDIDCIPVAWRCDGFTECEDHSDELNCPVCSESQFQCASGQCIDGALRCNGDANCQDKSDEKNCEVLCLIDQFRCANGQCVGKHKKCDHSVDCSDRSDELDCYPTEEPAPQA

[2] = target: T2, mouse LRP5 ECD, Fc-tagged (mouse, UniProt Q91VN0 31-1383); assay: as above
T2 construct: extracellular domain; Bought; not shown: Fc tag of the purchased fusion
T2 sequence (looked up): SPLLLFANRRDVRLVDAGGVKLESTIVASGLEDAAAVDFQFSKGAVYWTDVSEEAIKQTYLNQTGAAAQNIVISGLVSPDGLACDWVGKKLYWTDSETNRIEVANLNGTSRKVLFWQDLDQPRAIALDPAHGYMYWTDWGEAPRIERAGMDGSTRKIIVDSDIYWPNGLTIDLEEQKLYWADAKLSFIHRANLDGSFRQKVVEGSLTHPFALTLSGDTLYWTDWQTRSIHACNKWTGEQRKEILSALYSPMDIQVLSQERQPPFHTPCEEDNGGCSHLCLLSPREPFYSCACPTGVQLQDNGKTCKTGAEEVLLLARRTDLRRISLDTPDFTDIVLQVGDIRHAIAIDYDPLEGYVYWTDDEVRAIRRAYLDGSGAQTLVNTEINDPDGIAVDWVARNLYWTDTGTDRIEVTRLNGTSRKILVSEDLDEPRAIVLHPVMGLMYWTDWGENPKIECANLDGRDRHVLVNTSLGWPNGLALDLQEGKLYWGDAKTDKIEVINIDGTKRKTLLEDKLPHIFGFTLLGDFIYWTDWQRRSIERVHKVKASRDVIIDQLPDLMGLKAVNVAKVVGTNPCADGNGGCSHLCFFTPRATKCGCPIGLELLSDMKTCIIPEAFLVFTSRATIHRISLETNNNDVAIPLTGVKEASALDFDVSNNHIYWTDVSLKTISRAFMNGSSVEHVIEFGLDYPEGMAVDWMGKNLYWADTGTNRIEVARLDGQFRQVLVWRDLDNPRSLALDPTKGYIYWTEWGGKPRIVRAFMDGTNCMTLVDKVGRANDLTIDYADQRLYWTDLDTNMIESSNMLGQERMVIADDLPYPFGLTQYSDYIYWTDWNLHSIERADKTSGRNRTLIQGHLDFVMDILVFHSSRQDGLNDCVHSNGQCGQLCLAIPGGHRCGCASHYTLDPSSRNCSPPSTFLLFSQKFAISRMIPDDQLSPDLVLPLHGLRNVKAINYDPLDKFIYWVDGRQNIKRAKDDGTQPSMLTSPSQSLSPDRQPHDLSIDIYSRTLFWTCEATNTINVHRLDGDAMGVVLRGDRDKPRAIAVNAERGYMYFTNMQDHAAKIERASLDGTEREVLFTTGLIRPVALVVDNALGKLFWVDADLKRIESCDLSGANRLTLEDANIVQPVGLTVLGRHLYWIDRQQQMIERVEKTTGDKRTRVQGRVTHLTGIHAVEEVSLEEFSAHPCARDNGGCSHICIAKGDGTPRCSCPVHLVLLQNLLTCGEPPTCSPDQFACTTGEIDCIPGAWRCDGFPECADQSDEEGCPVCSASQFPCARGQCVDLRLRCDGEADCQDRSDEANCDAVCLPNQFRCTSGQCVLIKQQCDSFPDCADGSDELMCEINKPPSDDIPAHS

85BSA = target: T3, 85BSA (Bos taurus, UniProt P02769); assay: as above
T3 construct: also called bovine serum albumin

FZD5 CRD, Fc-tagged = target: T4, FZD5 CRD, Fc-tagged (human, UniProt Q13467 27-167); assay: kinetic table of the Fab; KD marked '**…'; the printed KD is not kd/ka of the same column; method not named for this figure
T4 construct: domain: CRD; Bought; also called FZD5 ECD; not shown: Fc tag of the purchased fusion
T4 sequence (looked up): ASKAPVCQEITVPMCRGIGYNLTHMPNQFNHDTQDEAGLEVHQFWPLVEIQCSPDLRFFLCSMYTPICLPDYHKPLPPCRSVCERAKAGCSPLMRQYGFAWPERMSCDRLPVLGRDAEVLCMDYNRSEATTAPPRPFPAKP

FZD2 CRD, Fc-tagged = target: T5, FZD2 CRD, Fc-tagged (human, UniProt Q14332 24-190); assay: as above
T5 construct: domain: CRD; Bought; not shown: Fc tag of the purchased fusion

FZD8 CRD, Fc-tagged = target: T6, FZD8 CRD, Fc-tagged (human, UniProt Q9H461 28-158); assay: as above
T6 construct: domain: CRD; Bought; not shown: Fc tag of the purchased fusion
T6 sequence (looked up): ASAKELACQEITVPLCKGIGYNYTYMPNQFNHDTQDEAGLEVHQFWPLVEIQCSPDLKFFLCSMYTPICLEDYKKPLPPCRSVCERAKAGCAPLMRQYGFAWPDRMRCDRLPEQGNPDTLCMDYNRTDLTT

FZD1 CRD, Fc-tagged = target: T7, FZD1 CRD, Fc-tagged (human, UniProt Q9UP38 70-250); assay: as above
T7 construct: domain: CRD; Bought; not shown: Fc tag of the purchased fusion

FZD7 CRD, Fc-tagged = FZD7 CRD, Fc-tagged (human, UniProt O75084 33-185); assay: as above

T3 sequence (P02769 25-607 limits assumed): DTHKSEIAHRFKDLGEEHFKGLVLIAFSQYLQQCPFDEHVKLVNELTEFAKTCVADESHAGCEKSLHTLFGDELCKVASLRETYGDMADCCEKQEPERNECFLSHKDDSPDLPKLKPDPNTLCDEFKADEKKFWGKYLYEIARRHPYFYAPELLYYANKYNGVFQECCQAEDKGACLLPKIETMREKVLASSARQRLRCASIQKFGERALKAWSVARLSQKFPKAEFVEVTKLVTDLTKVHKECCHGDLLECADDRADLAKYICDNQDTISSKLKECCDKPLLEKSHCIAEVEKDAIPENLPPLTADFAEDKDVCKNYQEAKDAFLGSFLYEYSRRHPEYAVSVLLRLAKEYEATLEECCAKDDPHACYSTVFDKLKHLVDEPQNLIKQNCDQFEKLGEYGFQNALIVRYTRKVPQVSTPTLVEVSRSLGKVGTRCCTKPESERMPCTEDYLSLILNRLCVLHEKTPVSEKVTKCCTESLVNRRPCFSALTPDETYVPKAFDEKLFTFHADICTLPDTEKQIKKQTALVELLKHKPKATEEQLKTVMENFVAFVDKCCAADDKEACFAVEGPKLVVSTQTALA
T7 sequence (Q9UP38 70-250): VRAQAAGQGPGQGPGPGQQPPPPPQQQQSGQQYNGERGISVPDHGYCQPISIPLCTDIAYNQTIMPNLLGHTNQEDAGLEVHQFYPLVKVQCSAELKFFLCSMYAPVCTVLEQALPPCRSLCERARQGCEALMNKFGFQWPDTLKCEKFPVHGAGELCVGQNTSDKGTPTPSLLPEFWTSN

B1: LRP6 antibody 2542 (antibody, V domains shown)
VH: EVQLVESGGGLVQPGGSLRLSCAASGFNISSYYIHWVRQAPGKGLEWVASIYSSYGYTSYADSVKGRFTISADTSKNTAYLQMNSLRAEDTAVYYCARTVRGSKKPYFSGWAMDYWGQGTLVTVSS
VL: DIQMTQSPSSLSASVGDRVTITCRASQSVSSAVAWYQQKPGKAPKLLIYSASSLYSGVPSRFSGSRSGTDFTLTISSLQPEDFATYYCQQYYWPITFGQGTKVEIK
[1]
  binding result: binds
[2]
  binding result: no binding
85BSA
  binding result: no binding

B2: F^P - Fab (Fab, V domains shown)
VH: EVQLVESGGGLVQPGGSLRLSCAASGFNIGSSSIHWVRQAPGKGLEWVASIYSAFASTSYADSVKGRFTISADTSKNTAYLQMNSLRAEDTAVYYCARYHFPFGFALDYWGQGTLVTVSS
VL: DIQMTQSPSSLSASVGDRVTITCRASQSVSSAVAWYQQKPGKAPKLLIYSASSLYSGVPSRFSGSRSGTDFTLTISSLQPEDFATYYCQQGVYLFTFGQGTKVEIK
FZD5 CRD, Fc-tagged
  Kd: 110 pM
FZD2 CRD, Fc-tagged
  Kd: 126 pM
FZD8 CRD, Fc-tagged
  Kd: 109 pM
FZD1 CRD, Fc-tagged
  Kd: 177 pM
FZD7 CRD, Fc-tagged
  Kd: 142 pM

B3: LRP6 antibody 2539 (antibody, V domains shown)
VH: EVQLVESGGGLVQPGGSLRLSCAASGFNISYSSIHWVRQAPGKGLEWVAYISSYYGYTYYADSVKGRFTISADTSKNTAYLQMNSLRAEDTAVYYCARAHYFPWAGAMDYWGQGTLVTVSS
VL: DIQMTQSPSSLSASVGDRVTITCRASQSVSSAVAWYQQKPGKAPKLLIYSASSLYSGVPSRFSGSRSGTDFTLTISSLQPEDFATYYCQQYSWGPFTFGQGTKVEIK
notes: also called L6^3
[1]
  binding result: binds
[2]
  binding result: no binding
85BSA
  binding result: no binding
